Test results reported in patent US20260250410A1 (SICHUAN HUIYU PHARMACEUTICAL, published 2026).
Residue numbers refer to the chain shown, from its start.

T1: HuCDCP1-B (human, UniProt Q9H5V8 343-667)
T1 construct: range 343-667; expressed in HEK-293T, purified by Fc/his tag; also called human CDCP1-B; membrane-proximal region of CDCP1; not shown: Fc or his tag
T1 sequence (looked up): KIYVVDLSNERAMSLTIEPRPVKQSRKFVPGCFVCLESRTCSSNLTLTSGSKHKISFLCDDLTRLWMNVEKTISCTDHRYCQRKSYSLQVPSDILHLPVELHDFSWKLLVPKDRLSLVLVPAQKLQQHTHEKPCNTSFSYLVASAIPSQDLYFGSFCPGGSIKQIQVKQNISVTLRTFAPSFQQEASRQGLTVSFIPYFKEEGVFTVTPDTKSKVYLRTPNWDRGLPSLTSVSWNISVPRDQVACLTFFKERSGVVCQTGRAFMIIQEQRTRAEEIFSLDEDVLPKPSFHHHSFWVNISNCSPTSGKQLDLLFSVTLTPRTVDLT

T2: HuCDCP1-A (human, UniProt Q9H5V8 30-430)
T2 construct: range 30-430; expressed in HEK-293T, purified by Fc/his tag; also called human CDCP1-A; membrane-distal region of CDCP1; not shown: Fc or his tag
T2 sequence (looked up): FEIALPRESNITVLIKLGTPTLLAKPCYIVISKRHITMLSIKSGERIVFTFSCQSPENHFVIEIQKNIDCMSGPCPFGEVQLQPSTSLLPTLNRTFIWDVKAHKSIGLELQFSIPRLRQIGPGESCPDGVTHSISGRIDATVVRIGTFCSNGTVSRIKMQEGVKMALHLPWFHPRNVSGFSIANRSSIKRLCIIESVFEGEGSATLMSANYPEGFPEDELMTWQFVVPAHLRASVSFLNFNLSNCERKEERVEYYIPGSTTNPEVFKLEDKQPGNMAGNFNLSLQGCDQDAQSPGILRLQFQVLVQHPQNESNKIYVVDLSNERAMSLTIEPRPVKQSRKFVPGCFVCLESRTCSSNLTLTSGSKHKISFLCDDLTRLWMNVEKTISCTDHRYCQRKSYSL

T3: CynoCDCP1 (Macaca fascicularis, UniProt A0A2K5VLA8 30-667)
T3 construct: extracellular domain; also called Macaca fascicularis CDCP1; monkey CDCP1; not shown: Fc or his tag
T3 sequence: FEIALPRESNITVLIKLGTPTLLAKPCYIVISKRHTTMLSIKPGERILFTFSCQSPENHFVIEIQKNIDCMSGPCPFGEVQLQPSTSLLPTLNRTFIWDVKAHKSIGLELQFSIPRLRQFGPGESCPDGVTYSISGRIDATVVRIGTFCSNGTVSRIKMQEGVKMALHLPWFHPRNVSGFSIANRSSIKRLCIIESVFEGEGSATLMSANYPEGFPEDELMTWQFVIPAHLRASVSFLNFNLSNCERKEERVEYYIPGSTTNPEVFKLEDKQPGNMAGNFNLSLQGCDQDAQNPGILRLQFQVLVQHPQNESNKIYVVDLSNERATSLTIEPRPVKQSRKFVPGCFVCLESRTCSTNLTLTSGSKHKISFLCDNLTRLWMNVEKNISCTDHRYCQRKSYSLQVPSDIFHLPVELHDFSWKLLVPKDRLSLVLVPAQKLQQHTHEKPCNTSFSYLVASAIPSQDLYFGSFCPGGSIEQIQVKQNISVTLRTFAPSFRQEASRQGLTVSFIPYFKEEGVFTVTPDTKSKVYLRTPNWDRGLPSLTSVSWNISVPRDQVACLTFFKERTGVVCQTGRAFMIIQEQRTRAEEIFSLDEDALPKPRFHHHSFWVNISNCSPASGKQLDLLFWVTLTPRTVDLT

B1: 1CP-124 (antibody, human IgG1, kappa, V domains shown)
VH: QVQLVQSGAEVKKPGASVKVSCKASGYNFISYWLHWVRQAPGQGLEWMGGIYPGNTDTTYNQKFKGRVTMTRDTSTSTVYMELSSLRSEDTAVYYCIRYDYDRGMDYWGQGTLVTVSS
VL: DIQMTQSPSSLSASVGDRVTITCRASEDIYYRLAWYQQKPGKAPKLLISGATALETGVPSRFSGSGSGKDYTFTISSLQPEDIATYYCQHYWNIPWTFGQGTKVEIKR
notes: humanized 3C11, human IgG1 kappa
B2: 1CP-129 (antibody, human IgG1, kappa, V domains shown)
VH: B1 VH with R72A
VL: B1 VL with F73L
notes: as for B1
B3: 1CP-125 (antibody, human IgG1, kappa, V domains shown)
VH: B1 VH with R72A
VL: B1 VL
notes: as for B1
B4: 1CP-128 (antibody, human IgG1, kappa, V domains shown)
VH: B1 VH
VL: B1 VL with F73L
notes: as for B1
B5: 1CP-152 (antibody, human IgG1, kappa, V domains shown)
VH: EVQLVESGGGLVQPGRSLRLSCTTSGLTFTHYHMSWVRQAPGKGLEWVAIIRNKAYGYTTDYSASVRGRFTISRDDSKSILYLQMNSLKTEDTAVYYCVREGGYGYDGTFAYWGQGTLVTVSS
VL: DIQMTQSPSSLSASVGDRVTITCRASESVDNYGISFMNWFQQKPGQAPKLLIYAASNQGSGVPSRFSGSGSGTDFTLTISSMQPEDFATYYCQQSKEVPRTFGGGTKVEIKR
notes: humanized 8C9, human IgG1 kappa
B6: 1CP-157 (antibody, human IgG1, kappa, V domains shown)
VH: B5 VH with L45P
VL: B5 VL with A47P
notes: as for B5
B7: 1CP-117 (antibody, human IgG1, kappa, V domains shown)
VH: QVQLVQSGSELKKPGASVKVSCKASGYTLTDFSMHWVRQAPGQGLEWMGWINTETGAPTYADDFKGRFVLSLDTSVSTAYLQISSLKAEDTAVYYCSRGRDYDPHFDYWGQGTLVTVSS
VL: EIVLTQSPATLSLSPGERATLSCRASQSISDFLHWYQQKPGQSPRLLIKYASQSISGIPARFSGSGSGSDFTLTISSVEPEDFAVYYCQSAHSFPYTFGQGTKLEIKR
notes: humanized 8E5, human IgG1 kappa
B8: 1CP-121 (antibody, human IgG1, kappa, V domains shown)
VH: B7 VH
VL: B7 VL with P40S
notes: as for B7
B9: 12E6 (antibody, V domains shown)
VH: EVQLKESGPGILQPSQTLSLTCSFSGFSLSTSGMGVGWIRQPSGKGLEWLAHIWWDDVKLYNPALKSRLTISKETSNNQVFLKIASVDAADTATYYCARIDHGYGSNYWDFDVWGAGTTVTVSS
VL: DIVMTQAAPSVPVTPGGSVSISCRSTKSLLHSDGKTYLYWFLQRPGQSPQLLIYRMSNLASGVPDRFSGSGSGTAFTLRISRVEAEDVGVYYCMQHLEYPFTFGSGTKLEIK
notes: murine hybridoma mAb
B10: 3C11 (antibody, V domains shown)
VH: EVQLQQSGTVLARPGASVKMSCKASGYNFISYWLHWIKQRPGQGLEWIGGIYPGNTDTTYNQKFKGKAKVTAVTSATTAYMELSSLTNEDSAVYYCIRYDYDRGMDYWGQGTTVTVSS
VL: DIQMTQSPSSFSVSLGDRVTITCRASEDIYYRLAWYQQKPGNAPRLLISGATALETGVPSRFSGSGSGKDYTLSITSLQTEDVATYYCQHYWNIPWTFGGGTKLEIK
notes: murine hybridoma mAb

Molecular target: T1, HuCDCP1-B
Assay: SPR (Caterra), antigen immobilized
Description: (§1) The humanized anti-CDCP1 antibodies obtained from Example 11 were subjected to gene cloning, constructed into pTT5 expression vector for a small amount of expression in CHO cells (Expi-CHOS: Gibco A29127), and purified with an Fc affinity column (AT Protein A Diamond Plus. No. AA402312). Antibody purity was analyzed by HPLC and determined by Nanodrop. High-throughput affinity assay was carried out for a small amount of antibodies by Caterra.
(§2) Further, Partial anti-CDCP1 humanized antibodies were selected for expression, and then the affinity of the antibodies to the antigens Hu-CDCP1-A, Hu-CDCP1-B, Cyno-CDCP1, and Ms-CDCP1 was detected according to the above affinity detection method.

Binder	Kd [nM]
B1	100
B2	157
B3	55.1
B4	109
B5	110
B6	359
B7	182
B8	131

Molecular target: T2, HuCDCP1-A
Assay: SPR (Caterra), antigen immobilized
Description: as §1, §2

Binder	Kd [nM]
B1	132
B2	126
B3	559
B4	76
B5	105
B6	226
B7	76.5
B8	99.8

Molecular target: T3, CynoCDCP1
Assay: SPR (Caterra), antigen immobilized
Description: as §1, §2

Binder	Kd [nM]
B1	24.2
B2	53.8
B3	2.27
B4	47.5
B5	2.9
B6	2.6
B7	1.84
B8	1.51

Molecular target: T1, HuCDCP1-B
Assay: SPR (Caterra or Biacore), antigen immobilized

Binder	EC50 [nM]
B9	1.62
B10	3.78
